Source: publication PMC10130768

Experiments:
[1] = biological target: SNF2H (UniProt O60264); assay: HA immunoprecipitation and mass spectrometry; conditions: PC3 cells; average of three independent experiments; parent: est. 35; read off a plot
[2] = biological target: DHX9 (UniProt Q08211); assay: HA immunoprecipitation and mass spectrometry; conditions: PC3 cells; average of three independent experiments; parent: est. 32; read off a plot
Sequence of UniProt Q08211 (Q08211 whole entry): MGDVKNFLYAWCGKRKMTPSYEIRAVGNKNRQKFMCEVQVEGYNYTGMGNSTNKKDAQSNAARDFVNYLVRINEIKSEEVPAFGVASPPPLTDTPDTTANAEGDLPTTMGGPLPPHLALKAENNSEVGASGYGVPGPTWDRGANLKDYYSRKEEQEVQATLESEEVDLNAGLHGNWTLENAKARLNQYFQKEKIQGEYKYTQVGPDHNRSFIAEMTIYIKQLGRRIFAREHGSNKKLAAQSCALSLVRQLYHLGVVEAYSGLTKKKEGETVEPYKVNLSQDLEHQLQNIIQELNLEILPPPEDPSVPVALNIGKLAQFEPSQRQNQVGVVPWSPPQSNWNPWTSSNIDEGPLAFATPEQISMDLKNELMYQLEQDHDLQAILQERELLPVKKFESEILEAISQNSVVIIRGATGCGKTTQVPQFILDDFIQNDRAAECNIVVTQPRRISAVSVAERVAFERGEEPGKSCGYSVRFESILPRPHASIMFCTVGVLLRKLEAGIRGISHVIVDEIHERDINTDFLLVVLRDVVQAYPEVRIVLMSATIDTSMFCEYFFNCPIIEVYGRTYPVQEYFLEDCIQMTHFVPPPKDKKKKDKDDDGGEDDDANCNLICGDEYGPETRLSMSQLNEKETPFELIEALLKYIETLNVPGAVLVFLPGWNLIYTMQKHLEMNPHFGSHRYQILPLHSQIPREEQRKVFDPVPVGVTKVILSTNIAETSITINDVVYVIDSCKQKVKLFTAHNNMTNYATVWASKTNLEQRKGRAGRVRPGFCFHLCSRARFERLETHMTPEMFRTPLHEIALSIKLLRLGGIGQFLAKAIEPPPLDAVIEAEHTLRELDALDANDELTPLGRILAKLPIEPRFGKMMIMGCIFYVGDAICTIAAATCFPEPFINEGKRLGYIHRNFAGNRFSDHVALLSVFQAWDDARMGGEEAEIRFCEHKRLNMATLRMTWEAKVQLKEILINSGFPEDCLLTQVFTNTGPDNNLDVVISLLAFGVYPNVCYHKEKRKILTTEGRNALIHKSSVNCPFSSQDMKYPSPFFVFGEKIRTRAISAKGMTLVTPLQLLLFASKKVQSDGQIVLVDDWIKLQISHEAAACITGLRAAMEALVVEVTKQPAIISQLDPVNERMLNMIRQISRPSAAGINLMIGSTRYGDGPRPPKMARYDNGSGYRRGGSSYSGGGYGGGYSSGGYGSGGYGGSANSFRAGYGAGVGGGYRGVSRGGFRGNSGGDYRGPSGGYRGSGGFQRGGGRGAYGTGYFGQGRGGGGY

Sequence of UniProt O60264 (O60264 whole entry): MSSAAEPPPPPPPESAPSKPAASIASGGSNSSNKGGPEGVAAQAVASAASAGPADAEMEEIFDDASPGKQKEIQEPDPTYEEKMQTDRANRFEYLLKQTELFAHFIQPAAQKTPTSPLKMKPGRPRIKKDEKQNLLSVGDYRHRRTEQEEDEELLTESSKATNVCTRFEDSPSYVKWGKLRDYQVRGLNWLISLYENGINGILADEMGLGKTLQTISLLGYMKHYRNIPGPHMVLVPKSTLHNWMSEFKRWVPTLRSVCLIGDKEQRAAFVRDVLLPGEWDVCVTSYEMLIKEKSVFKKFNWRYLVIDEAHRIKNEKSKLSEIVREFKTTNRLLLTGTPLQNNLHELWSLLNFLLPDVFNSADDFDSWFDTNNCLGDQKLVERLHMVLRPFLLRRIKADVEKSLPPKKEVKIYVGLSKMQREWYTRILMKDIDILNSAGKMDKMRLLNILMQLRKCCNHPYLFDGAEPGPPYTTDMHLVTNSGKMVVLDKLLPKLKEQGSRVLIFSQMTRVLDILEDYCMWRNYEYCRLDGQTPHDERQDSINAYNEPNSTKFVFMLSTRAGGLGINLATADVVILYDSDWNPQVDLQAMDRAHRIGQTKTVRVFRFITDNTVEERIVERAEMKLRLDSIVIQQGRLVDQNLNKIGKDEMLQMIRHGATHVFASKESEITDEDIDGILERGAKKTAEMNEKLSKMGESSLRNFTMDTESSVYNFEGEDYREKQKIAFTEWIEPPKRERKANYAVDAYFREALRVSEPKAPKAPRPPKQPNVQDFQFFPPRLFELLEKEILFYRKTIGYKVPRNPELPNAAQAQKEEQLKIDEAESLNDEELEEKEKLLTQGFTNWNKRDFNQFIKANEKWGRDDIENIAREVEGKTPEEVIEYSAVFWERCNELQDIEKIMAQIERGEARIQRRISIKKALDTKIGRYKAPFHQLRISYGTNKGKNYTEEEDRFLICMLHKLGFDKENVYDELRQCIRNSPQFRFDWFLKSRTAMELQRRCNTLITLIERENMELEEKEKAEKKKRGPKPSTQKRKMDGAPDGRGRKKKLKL

response (peptides number) [1]: 32 | response (peptides number) [2]: 36
Substance: HA-FLAG-tagged mouse WT BAZ2A (from UniProt Q91YE5) W531G; Y532A
